Measured values taken from the Immune Epitope Database (IEDB).

Tests used:
[1] = molecular target: HLA-A*01:01; experiment: IEDB peptide-MHC binding, purified MHC/direct/fluorescence; filed as Kd, often an IC50 or EC50 that approximates it; ≥ and ≤ were set here for values at or beyond the usual limits of such assays
[2] = molecular target: HLA-A*02:01; experiment: as above
[3] = molecular target: HLA-A*03:01; experiment: as above
[4] = molecular target: HLA-A*11:01; experiment: as above
[5] = molecular target: HLA-A*24:03; experiment: as above; settings: source organism: Escherichia coli O157:H7
[6] = molecular target: HLA-A*26:01; experiment: as above; settings: source organism: Escherichia coli O157:H7
[7] = molecular target: HLA-A*30:01; experiment: as above; settings: source organism: Escherichia coli O157:H7
[8] = molecular target: HLA-A*31:01; experiment: as above
[9] = molecular target: HLA-A*69:01; experiment: as above
[10] = molecular target: HLA-B*07:02; experiment: as above
[11] = molecular target: HLA-B*08:01; experiment: as above; settings: source organism: Escherichia coli O157:H7
[12] = molecular target: HLA-B*15:01; experiment: as above
[13] = molecular target: HLA-B*27:05; experiment: as above
[14] = molecular target: HLA-B*40:01; experiment: as above
[15] = molecular target: HLA-B*44:02; experiment: as above
[16] = molecular target: HLA-B*58:01; experiment: as above
[17] = molecular target: HLA-A*68:02; experiment: as above; settings: source organism: Marburg virus - Musoke, Kenya, 1980
[18] = molecular target: HLA-B*08:02; experiment: as above; settings: source organism: Orthomarburgvirus marburgense
[19] = molecular target: HLA-B*15:09; experiment: as above
[20] = molecular target: HLA-B*15:17; experiment: as above; settings: source organism: Marburg virus - Musoke, Kenya, 1980
[21] = molecular target: HLA-B*48:01; experiment: as above; settings: source organism: Marburg virus - Musoke, Kenya, 1980
[22] = molecular target: HLA-B*57:01; experiment: as above; settings: source organism: Marburg virus - Musoke, Kenya, 1980
[23] = molecular target: HLA-B*73:01; experiment: as above; settings: source organism: Marburg virus - Musoke, Kenya, 1980
[24] = molecular target: HLA-A*02:01; experiment: IEDB peptide-MHC binding, purified MHC/competitive/fluorescence; filed as Kd, often an IC50 or EC50 that approximates it; ≥ and ≤ were set here for values at or beyond the usual limits of such assays
[25] = molecular target: HLA-A*26:02; experiment: as above; settings: source organism: Orthomarburgvirus marburgense
[26] = molecular target: HLA-B*18:01; experiment: as above; settings: source organism: Orthomarburgvirus marburgense
[27] = molecular target: HLA-A*24:02; experiment: IEDB peptide-MHC binding, purified MHC/direct/fluorescence; filed as Kd, often an IC50 or EC50 that approximates it; ≥ and ≤ were set here for values at or beyond the usual limits of such assays; settings: source organism: Coxiella burnetii
[28] = molecular target: HLA-C*03:03; experiment: as above; settings: source organism: Coxiella burnetii Dugway 5J108-111
[29] = molecular target: HLA-C*08:02; experiment: as above; settings: source organism: Coxiella burnetii Dugway 5J108-111
[30] = molecular target: HLA-A*32:07; experiment: IEDB peptide-MHC binding, purified MHC/competitive/fluorescence; filed as Kd, often an IC50 or EC50 that approximates it; ≥ and ≤ were set here for values at or beyond the usual limits of such assays
[31] = molecular target: HLA-A*32:15; experiment: as above
[32] = molecular target: HLA-A*68:23; experiment: as above; settings: source organism: Coxiella burnetii Dugway 5J108-111
[33] = molecular target: HLA-B*15:42; experiment: as above
[34] = molecular target: HLA-B*45:06; experiment: as above
[35] = molecular target: HLA-B*83:01; experiment: as above
[36] = molecular target: HLA-C*06:02; experiment: as above
[37] = molecular target: HLA-C*14:02; experiment: as above
[38] = molecular target: HLA-A*02:01; experiment: IEDB peptide-MHC binding, cellular MHC/competitive/fluorescence; ≥ and ≤ were set here for values at or beyond the usual limits of such assays; settings: source organism: Homo sapiens
[39] = molecular target: HLA-A*03:19; experiment: IEDB peptide-MHC binding, purified MHC/competitive/fluorescence; filed as Kd, often an IC50 or EC50 that approximates it; ≥ and ≤ were set here for values at or beyond the usual limits of such assays; settings: source organism: Mycobacterium tuberculosis C
[40] = molecular target: HLA-C*05:01; experiment: IEDB peptide-MHC binding, purified MHC/direct/fluorescence; filed as Kd, often an IC50 or EC50 that approximates it; ≥ and ≤ were set here for values at or beyond the usual limits of such assays; settings: source organism: Yersinia pestis CO92
[41] = molecular target: HLA-C*06:02; experiment: as above; settings: source organism: Yersinia pestis CO92
[42] = molecular target: HLA-C*07:02; experiment: as above; settings: source organism: Yersinia pestis CO92
[43] = molecular target: HLA-C*15:02; experiment: as above; settings: source organism: Yersinia pestis CO92
[44] = molecular target: HLA-B*27:20; experiment: IEDB peptide-MHC binding, purified MHC/competitive/fluorescence; filed as Kd, often an IC50 or EC50 that approximates it; ≥ and ≤ were set here for values at or beyond the usual limits of such assays; settings: source organism: Yersinia pestis CO92
[45] = molecular target: HLA-B*51:01; experiment: as above; settings: source organism: Yersinia pestis CO92
[46] = molecular target: HLA-B*27:04; experiment: IEDB peptide-MHC binding, cellular MHC/competitive/fluorescence; ≥ and ≤ were set here for values at or beyond the usual limits of such assays; settings: source organism: Human herpesvirus 4 strain B95-8
[47] = source organism: Escherichia coli O157:H7
[48] = source organism: Marburg virus - Musoke, Kenya, 1980
[49] = source organism: Orthomarburgvirus marburgense
[50] = source organism: Coxiella burnetii
[51] = source organism: Coxiella burnetii Dugway 5J108-111
[52] = source organism: Mycobacterium tuberculosis C
[53] = source organism: Yersinia pestis CO92

Work on VTRQIHNPR yielded a Kd [1, 47] of no less than 20 µM, a Kd [2, 47] of no less than 20 µM and a Kd [3, 47] of 11.6 µM. For the same sequence, the Kd [4, 47] was 1860 nM, the Kd [5] was no less than 20 µM and the Kd [6] was no less than 20 µM. It also gave a Kd [7] of 6.93 nM, a Kd [8, 47] of 96.8 nM and a Kd [9, 47] of no less than 20 µM. For the same sequence, the Kd [10, 47] was no less than 20 µM, the Kd [11] was no less than 20 µM and the Kd [12, 47] was no less than 20 µM. The Kd [13, 47] was no less than 20 µM, the Kd [14, 47] was no less than 20 µM and the Kd [15, 47] was no less than 20 µM. The Kd [16, 47] was no less than 20 µM.

NRWKSWFSY showed a Kd [1, 48] of no less than 20 µM, a Kd [4, 48] of no less than 20000 nM and a Kd [8, 48] of no less than 20000 nM. The Kd [17] was no less than 20 µM, the Kd [9, 48] was no less than 20 µM and the Kd [10, 48] was no less than 20 µM. For the same sequence, the Kd [18] was no less than 20 µM, the Kd [12, 48] was no less than 20 µM and the Kd [19, 49] was no less than 20 µM. For the same sequence, the Kd [20] was no less than 20 µM, the Kd [13, 48] was 0.0864 µM and the Kd [21] was no less than 20 µM. For the same sequence, the Kd [22] was no less than 20 µM, the Kd [16, 48] was no less than 20 µM and the Kd [23] was 9.8 nM. For the same sequence, the Kd [24, 49] was 2540 nM, the Kd [25] was no less than 20 µM and the Kd [26] was no less than 20 µM.

MTFPVSLEY gave a Kd [1, 50] of 0.014 µM, a Kd [2, 50] of no less than 20 µM and a Kd [3, 50] of 0.0482 µM. The Kd [27] was no less than 20 µM, the Kd [10, 50] was no less than 20 µM and the Kd [12, 50] was 0.0434 µM. The Kd ([19]; source organism: Coxiella burnetii Q321) was no less than 20 µM, the Kd [13, 50] was no less than 20 µM and the Kd [14, 50] was no less than 20 µM. For the same sequence, the Kd [15, 50] was no less than 20 µM, the Kd [16, 50] was 0.0249 µM and the Kd [28] was 240 nM. It also gave a Kd [29] of no less than 20 µM, a Kd [30, 51] of 36.3 nM and a Kd [31, 51] of 18 nM. For the same sequence, the Kd [32] was no more than 0.1 nM, the Kd [33, 51] was no less than 5 µM and the Kd [34, 51] was no less than 5 µM. It also gave a Kd [35, 51] of 3.5 µM, a Kd [36, 51] of 39.6 nM and a Kd [37, 51] of 123 nM.

Sequence ALVVQVAEA has an IC50 [38] of 2580 nM.

In the case of MVRQMRAAL, the Kd [39] is reported as 590 nM, the Kd [31, 52] is reported as 356 nM and the Kd [33, 52] is reported as no less than 5 µM. The Kd [34, 52] was no less than 5 µM, the Kd [35, 52] was 0.0991 µM and the Kd [36, 52] was 526 nM. For the same sequence, the Kd [37, 52] was 33.5 nM.

YQLEMYHPI gave a Kd [40] of no less than 20 µM, a Kd [41] of no less than 20 µM and a Kd [42] of 3.75 µM. For the same sequence, the Kd [43] was no less than 20 µM, the Kd [24, 53] was 0.2 nM and the Kd [30, 53] was 1.3 nM. For the same sequence, the Kd [33, 53] was 15.2 µM, the Kd [44] was 0.8 nM and the Kd [34, 53] was 3.21 µM. The Kd [45] was no less than 20 µM, the Kd [35, 53] was no less than 5 µM and the Kd [37, 53] was 70.9 nM.

Work on QRSYVSGVL yielded an IC50 [46] of 5 µM.
